The target in experiment [1] is T1, human CD22 (cell surface) (human, UniProt P20273). As to the kind of experiment: FACS, Nalm6. In general terms: In flow cytometry, cells or beads pass a laser one at a time.
The target in experiment [2] is T1, human CD22 (cell surface). The experiment is described as follows: FACS, Raji/CD80 and CD86 negative.
For experiment [3], the target named is human CD28 (cell surface) (human, UniProt P10747). The experiment is described as follows: FACS, Jurkat.
Another experiment has as its target hCD28.mmH (human). The experiment is described as follows: SPR, 25C.
In experiment [4] the target is T1, human CD22 (cell surface). As to the kind of experiment: FACS, HEK293/hCD20/hCD22.

B1: REGN5837 (CD22 arm) (antibody, V domains shown)
VH: EVQLVQSGAEVKKPGESLKISCKGSGYNFATYWIAWVRQMPGKGLELMGIIYPGDSETTYNPSFQGQVTISADKSISNAYLQWSSLKASDTAMYYCARVGGYCSGTSCHNWFDPWGLGTLVTVSS
VL: not shown
For B1, the results for the EC50 in experiment [1] and in experiment [2] were 13 nM and 9.76 nM, respectively.

B2: REGN5838 (CD28 arm) (antibody, V domains shown)
VH: QVQLQESGPGLVKPSETLSLTCTVSGGSISSYYWSWIRQPPGKGLEWIGYIYYSGITHYNPSLKSRVTISVDTSKIQFSLKLSSVTAADTAVYYCARWGVRRDYYYYGMDVWGQGTTVTVSS
VL: not shown
On to B2, for which the EC50 in experiment [3] came to 23 nM. This molecule gave a Kd in the experiment with hCD28.mmH of 404 nM.

B3: REGN5837 (CD28 arm) (antibody, V domains shown)
VH: QVQLQESGPGLVKPSETLSLTCTVSGGSISSYYWSWIRQPPGKGLEWIGYIYYSGITHYNPSLKSRVTISVDTSKIQFSLKLSSVTAADTAVYYCARWGVRRDYYYYGMDVWGQGTTVTVSS
VL: not shown
In turn, B3 returned an EC50 in experiment [3] of 21 nM. That is a double-digit nanomolar value.

B4: REGN5838 (CD22 arm) (antibody, V domains shown)
VH: EVQLVESGGGLVQPGGSLKLSCAASGFTFSGSDMHWVRQASGKGLEWVGRIRNQPNSYATAYAASVKGRFTISRDDSKNTAHLQMNSLKTEDTAVYFCTRQKQVVYNYHHYYGMDVWGQGTTVTVSS
VL: not shown
Take B4: the EC50 was found to be 11.4 nM in experiment [4], 18 nM in experiment [1] and 14.9 nM in experiment [2].

As a reminder, the EC50 is the concentration needed to bring the measured effect to its halfway point. High values mean lower potency in that assay, low ones higher potency in that assay. The Kd is a measure of binding affinity in units of concentration.

Source of the values: patent publication US11396544 (dated 2022).
